Experimental data as given in the DeepSol protein solubility set.

Test: soluble on expression in E. coli; label from the status in PepcDB or PDB records

| Sequence | soluble on expression in E. coli |
| --- | --- |
| MVSNPVHGLPFLPGTSFKDSTKTAFHRSQTLSYRNGYAIVRRPTVGIGGDRLQFNQLSQAELDELASKAPVLTYGQPKQAPPADFIPAHVAFDKKVLKFDAYFQEDVPMSTEEQYRIRQVNIYYYLEDDSMSVIEPVVENSGILQGKLIKRQRLAKNDRGDHYHWKDLNRGINITIYGKTFRVVDCDQFTQVFLESQGIELNPPEKMALDPYTELRKQPLRKYVTPSDFDQLKQFLTFDKQVLRFYAIWDDTDSMYGECRTYIIHYYLMDDTVEIREVHERNDGIDPFPLLMNRQRVPKVLVENAKNFPQCVLEISDQEVLEWYTAKDFIVGKSLTILGRTFFIYDCDPFTRRYYKEKFGITDLPRIDVSKREPPPVKQELPPYNGFGLVEDSAQNCFALIPKAPKKDVIKMLVNDNKVLRYLAVLESPIPEDKDRRFVFSYFLATDMISIFEPPVRNSGIIGGKYLGRTKVVKPYSTVDNPVYYGPSDFFIGAVIEVFGHRFIILDTDEYVLKYMESNAAQYSPEALASIQNHVRKREAPAPEAESKQTEKDPGVQELEALIDTIQKQLKDHSCKDNIREAFQIYDKEASGYVDRDMFFKICESLNVPVDDSLVKELLRMCSHGEGKINYYNFVRAFSN | soluble |
| MVSRHIPERLKKKIYQEANMTCPNCGERDVSTFEIHHIQPFVDVKKHEERNLILLCSNCHSKATVGELTEIEVLRLKVGLISSSSGQSKETMPSNVITLDSVKNHGVIANQVTLNNSPAKVVLLPAVGSIASSLKHQNYIKYLIDKYHAYKIVEVGKSNMKYPVFYNALKRKFGAKWDMVPIDRFLELSTYIQDRIEKTVLGKKLKAQGKKSYSTFEEYLAKNCSLEHHHHHH | not soluble |
| MVTKTTLASATSGLLLLAVVAMSGCTPRPQGPGPAAEKFFAALAIGDTASAAQLSDNPNEAREALNAAWAGLQAAHLDAQVLSAKYAEDTGTVAYRFSWHLPKDRIWTYDGQLKMARDEGRWHVRWTTSGLHPKLGEHQTFALRADPPRRASVNEVGGTDVLVPGYLYHYSLDAGQAGRELFGTAHAVVGALHPFDDTLNDPQLLAEQASSSTQPLDLVTLHADDSNRVAAAIGQLPGVVITPQAELLPTDKHFAPAVLNDVKKAVVDELDGKAGWRVVSVNQNGVDVSVLHEVAPSPASSVSITLDRVVQNAAQHAVNTRGGKAMIVVIKPSTGEILAIAQNAGADADGPVATTGLYPPGSTFKMITAGAAVERDLATPETLLGCPGEIDIGHRTIPNYGGFDLGVVPMSRAFASSCNTTFAELSSRLPPRGLTQAARRYGIGLDYQVDGITTVTGSVPPTVDLAERTEDGFGQGKVLASPFGMALVAATVAAGKTPVPQLIAGRPTAVEGDATPISQKMIDALRPMMRLVVTNGTAKEIAGCGEVFGKTGEAEFPGGSHSWFAGYRGDLAFASLIVGGGSSEYAVRMTKVMFESLPPGYLA | not soluble |
| MVVTRIAPSPTGDPHVGTAYIALFNYAWARRNGGRFIVRIEDTDRARYVPGAEERILAALKWLGLSYDEGPDVAAPTGPYRQSERLPLYQKYAEELLKRGWAYRAFETPEELEQIRKEKGGYDGRARNIPPEEAEERARRGEPHVIRLKVPRPGTTEVKDELRGVVVYDNQEIPDVVLLKSDGYPTYHLANVVDDHLMGVTDVIRAEEWLVSTPIHVLLYRAFGWEAPRFYHMPLLRNPDKTKISKRKSHTSLDWYKAEGFLPEALRNYLCLMGFSMPDGREIFTLEEFIQAFTWERVSLGGPVFDLEKLRWMNGKYIREVLSLEEVAERVKPFLREAGLSWESEAYLRRAVELMRPRFDTLKEFPEKARYLFTEDYPVSEKAQRKLEEGLPLLKELYPRLRAQEEWTEAALEALLRGFAAEKGVKLGQVAQPLRAALTGSLETPGLFEILALLGKERALRRLERALA | soluble |
| MVWFFEYYDGCGLAIKVKKKLYEAEGVQKVEIYETESMGKMLVIDGKIQLTELDEPFYHEMLVHVPMLSHENPRKVAVIGGGDGGALREVLKHNVERAVLVDIDRNVIDLSRKFLKIDHGAFEDERVEIAIMDGKEFLRDCEIFDVIIVDSTDPVGVSDTLFDREFFELARQKCDVISLQSQSPLIQKEYFRTLLVNSAPFERRDVYLSCVPTYPLALWSFIIGGEYDFSNLEERFERIKGKTVHYNPDVHRAAFALPEWLKKEVEACILEHHHHHH | soluble |
| MVYLLDLSGVYCEPVEPRLLRLLAEESGEPVFYLSEAFYALLPRLKAEGAQALEALFPGASRLYPKAFRPRGLAFPEPFHLVSDLPPPEGVLAYHAPDKLEALALALEALGLAPGEAVYWDDNPLWVERARGLGVRAELFLP | soluble |
| MWIEIICGLVIYKLVRRFFYDDEFSDVETSDSTALFSVAHRLEKLYGGKAYVGLRIPDADTASRQDIDVVLVTKGDVVVISVKNLSGIVTVTSDGSWVCEGGKHHTTETFPDPLAEVKKQASVLESYLEQRGVTLLEGNVSCKVVIPNPSFRTIHAFPSEVITYEDWQQLKPVSKSKISGWVKGAFSTGKEMQESSHQKLNFILGTAPTWDRVELKSSKIVLGEFLEFKGKQEDTLALRNIKRSKVDRVSIQKTSMFGL | not soluble |
| MWIPSKLTRPGRLHNAIVRPRVLDLLQQAPYYKLVLFRSPAGYGKTTMAAQWLSDKPNVGWYSIDDSDNDGFRFVNYLLQALNKATNFSCSNAQKLAEKRQISSLRSLFSEVFAEMADFHQECYVVLDDYHLITNDEIHESMRFFLKHMPDNLTVVVTSRAAPPLGTANLRVRDLMIEIGNEMLAFDTEETTRFFNQRIADGIDEDMANSLRTYVEGWPSAMQLIALQAQHQNRTLAQTVESVSQFNHAHLWDYLVEEVFDLLDHETRHFLMQVSVLDHFNDELVFALTQREDALGLIESLNRYGLFIYPLEGEHNWFRFHNLFGEFLSHERQARIPQQEKDLHRNAAVAWLQQKSPHQAIHHAQKSNDKDLVVEILNEFGWKMFNQGELSTLEHAINKLDAELLFSHPKLTMLRAWLAQSQHRYNQVGQLLEEAEEEHKKRNIELDIHYQGQA | not soluble |
| MWKMLSSEYSILLIDDDADVLDAYTQLLEQSGYRVFACNNPFEAQAWIQPDWPGIVLSDVCMPGCSGIDLMMLFHQDDQQLPILLITGHGDVPMAVDAVKKGAWDFLQKPVDPGKLLSLVEEALRQRQSIIARRQYCQQTLQVELIGRSEWINQYRRRLQQLSETDIAVWLYGAPGTGRMTGARYLHQFGRNAQGEFVYRELTPDNAPQLNDFIALAQGGTLVLSHPEHLTREQQYHLVQLQSQEHRPFRLIGIGDTSLVELAASNHIIAELYYCFAMTQIACLPLTQRPDDIEPLFRHYLCKACQRLNHPVPEVGKEMLKEMMRRMWPNNVRELANAAELFTVGVLPLAETANPLMHVGTPTPLDRRVEDAERQIITEALNIHQGRINEVAEYLQIPRKKLYLRMKKYGLSKEHYKI | not soluble |
| MWLIILWNAKPDTPLFNFKDEVIKYKTYEPFESSIKRVNTTIKNGSKGKTLTEMINGYRADNDIRDEICNFNILKNKIRDMKNQQGNTMESYF | not soluble |
| MWRCIVVISSDRRPEMPFKPLVTAGIESLLNTFLYRSPALKTARSRLLGKVLRVEVKGFSTSLILVFSERQVDVLGEWAGDADCTVIAYASVLPKLRDRQQLAALIRSGELEVQGDIQVVQNFVALADLAEFDPAELLAPYTGDIAAEGISKALRGGAKFLHHGIKRQQCYVAEAITEEWRMAPGPLEVAWFAEETAAVERAVDALTKRLEKLEAK | not soluble |
| MWRSCLRLRDGGRRLLNRPAGGPSASMSPGPTIPSPARAYAPPTERKRFYQNVSITQGEGGFEINLDHRKLKTPQAKLFTVPSEALAIAVATEWDSQQDTIKYYTMHLTTLCNTSLDNPTQRNKDQLIRAAVKFLDTDTICYRVEEPETLVELQRNEWDPIIEWAEKRYGVEISSSTSIMGPSIPAKTREVLVSHLASYNTWALQGIEFVAAQLKSMVLTLGLIDLRLTVEQAVLLSRLEEEYQIQKWGNIEWAHDYELQELRARTAAGTLFIHLCSESTTVKHKLLKE | not soluble |
| MWSEKHKSGKVNFVERYKHPYTGKWCRASVLMEKDTPRIRKEAQKYLDEKISEILTSLTTTDAYLLDVMNEWWEHHQKSLKSTSVRSLDFRIRELRNLIDPEVMIAKITTKYLQSIIDKIPGSYDKRKRARQLLKQTFDYAIALEYVSINPVISTQLAKPVKTIKDFEDVAQKFLEKDELKRLLDEMYRRKGSIKMAYLAEFMSLNGCRIGEALAIQPDNIKNDIIEIHGTLDYTSNGYRNAIKTTPKTNSSWRETLITKREKEIIQDILKINALEKNTNPNYKDMGYIFISRNGVPIQDNALNTSIRAANKRLEKPIQKELTSHIFRHTLVSRLAENKVPLKTIMDRVGHADSKTTQQIYTHVTKSMKNEVVDILNRL | not soluble |
| MWTATACSIDSSPSMWNCAEVMDSTRSELLQSTPEAEDGNIEYKLKLVNPSQYRFEHLVTQMKWRLQEGRGEAVYQIGVEDNGLLVGLAEEEMRASLKTLHRMAEKVGADITVLREREVDYDSDVPRKITEVLVRKVPDNQQFLDLRVAVLGNVDSGKSTLLGVLTQGELDNGRGRARLNLFRHLHEIQSGRTSSISFEILGFNSKGEVVNYSDSRTAEEICESSSKMITFIDLAGHHKYLHTTIFGLTSYCPDCALLLVSANTGIAGTTREHLGLALALKVPFFIVVSKVDLCAKTTVERTVRQLERVLKQPGCHKVPMLVTSEDDAVTAAQQFAQSPNVTPIFTLSSVSGESLDLLKVFLNILPPLTNSKEQEELMQQLTEFQVDEIYTVPEVGTVVGGTLSSGICREGDQLVVGPTDDGCFLELRVCSIQRNRSACRVLRAGQAATLALGDFDRALLRKGMVMVSPEMNPTICSVFEAEIVLLFHATTFRRGFQVTVHVGNVRQTAVVEKIHAKDKLRTGEKAVVRFRFLKHPEYLKVGAKLLFREGVTKGIGHVTDVQAITAGEAQATMGF | soluble |
| MYALAFDLKIEILKKEYGEPYNKAYDDLRQELELLGFEWTQGSVYVNYSKENTLAQVYKAINKLSQIEWFKKSVRDIRAFKVEDFSDFTEIVKS | not soluble |
| MYDKILKMLTDTIKQFSDAPIYLDNVMQSSEPFYFVLSVEESMTDNVGQNVQNKAYNVDIALVDSKKDKQLVKSLTESCGAFFNVLNLDGNELFPEDYQTFKTDGIQHINFNVAFPQLIEWSEK | not soluble |
| MYFKMITSAPWVLYPEIGEDPSKKWIFREPKISDGDGIYSLIADCPPLDMNSSYCNFLQSTHFSKTSILVEHKGDIAGFISGYQKPDEQDVLFIWQVAVSPRFRGNGLAFRMLKELLEREALSEVKSVETTITEDNQASWALFKKLDAMNGNHGQVSTFLDEKAHFKGKHDTEFLYRIPLK | not soluble |
| MYGEWGMGNILMMFHVYLVQGFRSEHGPVKDFSFERSSRSMLERSEQQIRAASSLEELLQIAHSEDWKLWRCRLKLKSLASMDSRSASHRSTRFAATFYDL | not soluble |
| MYINVVKCMWKQIKHRFEGYPSRMYVARKIIDLGFRIDRNGKIYCDDVEISDVALARAVGVDRRTVRATANTILEDEKLRGIFENMMPAGALLRDAAGELDFGVVEIEADARNPGILAAAARLIADKGISIRQAHAGDPELDETPRLTIITETPIPGGLLKDFLKIDGVKRVSIY | soluble |
| MYKAIIMPVDVFEMELSDKAVRHAEFLAQDDGVIHLLHVLPGSASLSLHRFAADVRRFEEHLQHEAEERLQTMVSHFTIDPSRIKQHVRFGSVRDEVNELAEELGADVVVIGSRNPSISTHLLGSNASSVIRHANLPVLVVR | not soluble |
| MYKFVLIASLLVALCMAAPPRQESEAERIEREEYEKYQNENAQYSFNSSVDDKINDGQISRNEEREGGTVRGSYSYFDGFVKRRVEYIADKDGYRVLKDEIEDVGNGPSFNPDGIANVEGSMIGKYSIKLDKADDDKHYKDIHALEHHHHHH | not soluble |
